# Experimental data: article PMC4027212
# B1: Splayed arm (O2+O9) (structured_DNA)
# DNA 1: AAAAAAAAAAAAAAAAAAAAAAAAAAAAAAAAAAAAAAAAGTAGAGTCGACGGTGCTGGGATCCAACATGTTTTCAATCTG
# DNA 2: CAGATTGAAAACATGTTGGATCCCAGCACCGTCGACTCTACAAAAAAAAAAAAAAAAAAAAAAAAAAAAAAAAAAAAAAAA
# Target: FANCI (human, UniProt Q9NVI1 1-1328)
# Assay: EMSA
# Chain of FANCI (Q9NVI1 whole entry): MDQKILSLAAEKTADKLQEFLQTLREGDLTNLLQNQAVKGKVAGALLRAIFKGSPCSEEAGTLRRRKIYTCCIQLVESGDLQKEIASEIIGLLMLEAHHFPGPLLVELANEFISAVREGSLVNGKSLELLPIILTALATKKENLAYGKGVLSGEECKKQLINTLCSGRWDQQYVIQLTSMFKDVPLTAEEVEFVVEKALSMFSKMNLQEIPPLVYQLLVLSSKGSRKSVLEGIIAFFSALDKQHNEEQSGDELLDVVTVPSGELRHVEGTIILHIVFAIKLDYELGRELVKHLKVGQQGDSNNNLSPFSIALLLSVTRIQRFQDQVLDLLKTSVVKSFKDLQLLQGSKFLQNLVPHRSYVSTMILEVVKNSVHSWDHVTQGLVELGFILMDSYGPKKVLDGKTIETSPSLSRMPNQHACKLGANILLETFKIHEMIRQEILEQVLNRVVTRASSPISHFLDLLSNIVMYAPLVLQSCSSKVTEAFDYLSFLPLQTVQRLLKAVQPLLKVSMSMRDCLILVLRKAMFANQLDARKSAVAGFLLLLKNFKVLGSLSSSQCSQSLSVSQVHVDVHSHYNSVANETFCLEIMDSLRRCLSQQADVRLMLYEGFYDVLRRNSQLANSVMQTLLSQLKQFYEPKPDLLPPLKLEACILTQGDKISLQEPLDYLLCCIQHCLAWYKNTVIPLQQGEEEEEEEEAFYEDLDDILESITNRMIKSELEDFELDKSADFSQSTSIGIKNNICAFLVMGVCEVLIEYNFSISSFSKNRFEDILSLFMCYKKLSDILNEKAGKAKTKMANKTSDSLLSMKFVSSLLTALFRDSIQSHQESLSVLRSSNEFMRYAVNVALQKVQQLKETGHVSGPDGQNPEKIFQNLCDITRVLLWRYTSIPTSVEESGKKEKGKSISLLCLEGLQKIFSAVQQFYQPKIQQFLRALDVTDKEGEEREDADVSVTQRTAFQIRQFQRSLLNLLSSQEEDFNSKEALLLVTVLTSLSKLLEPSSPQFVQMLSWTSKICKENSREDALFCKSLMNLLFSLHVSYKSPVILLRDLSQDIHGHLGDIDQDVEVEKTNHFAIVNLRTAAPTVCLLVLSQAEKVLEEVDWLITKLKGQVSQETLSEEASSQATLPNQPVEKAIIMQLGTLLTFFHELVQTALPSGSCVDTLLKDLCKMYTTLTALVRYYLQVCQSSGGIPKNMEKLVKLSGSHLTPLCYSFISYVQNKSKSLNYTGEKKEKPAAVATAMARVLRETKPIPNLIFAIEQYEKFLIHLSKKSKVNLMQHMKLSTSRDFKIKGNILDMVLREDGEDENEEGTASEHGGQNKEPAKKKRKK
binder,measurement,value
B1,binding result,binds
